Bridge positions count the residues as written; N and C are the ends. Square brackets hold non-standard residues; d marks the D form. Phe(3,4-Cl2) = N[C@@H](Cc1ccc(Cl)c(Cl)c1)C(=O)O; Phe(4-CF3) = N[C@@H](Cc1ccc(C(F)(F)F)cc1)C(=O)O; Bip = N[C@@H](Cc1ccc(-c2ccccc2)cc1)C(=O)O; Phe(3-F) = N[C@@H](Cc1cccc(F)c1)C(=O)O; NMeF = CN[C@@H](Cc1ccccc1)C(=O)O; NMeE = CN[C@@H](CCC(=O)O)C(=O)O; NMeA = CN[C@@H](C)C(=O)O
B1: Ac*-F-V-D-T-T-S-(N-Me)A-B-(N-Me)A-K-S-P-C*-G-NH2 (peptide)
peptide: {CH2CO}-FVDTTS[NMeA][Bip][NMeA]KSPCG-NH2
modifications: thioether N-13
SMILES: CC(C)[C@@H]1NC(=O)[C@H](Cc2ccccc2)NC(=O)CSC[C@@H](C(=O)NCC(N)=O)NC(=O)[C@@H]2CCCN2C(=O)[C@H](CO)NC(=O)[C@H](CCCCN)NC(=O)[C@H](C)N(C)C(=O)[C@H](Cc2ccc(-c3ccccc3)cc2)NC(=O)[C@H](C)N(C)C(=O)[C@H](CO)NC(=O)[C@H]([C@@H](C)O)NC(=O)[C@H]([C@@H](C)O)NC(=O)[C@H](CC(=O)O)NC1=O
notes: also called 1-7; Ex. No. 1-7
B2: Ac*-F-V-D-T-T-S-(N-Me)F-B-(N-Me)A-E-S-P-C*-G-NH2 (peptide)
peptide: {CH2CO}-FVDTTS[NMeF][Bip][NMeA]ESPCG-NH2
modifications: thioether N-13
SMILES: CC(C)[C@@H]1NC(=O)[C@H](Cc2ccccc2)NC(=O)CSC[C@@H](C(=O)NCC(N)=O)NC(=O)[C@@H]2CCCN2C(=O)[C@H](CO)NC(=O)[C@H](CCC(=O)O)NC(=O)[C@H](C)N(C)C(=O)[C@H](Cc2ccc(-c3ccccc3)cc2)NC(=O)[C@H](Cc2ccccc2)N(C)C(=O)[C@H](CO)NC(=O)[C@H]([C@@H](C)O)NC(=O)[C@H]([C@@H](C)O)NC(=O)[C@H](CC(=O)O)NC1=O
notes: also called 1-5; Ex. No. 1-5
B3: Ac*-F-V-S-T-T-S-(N-Me)F-B-(N-Me)A-E-S-P-C*-G-NH2 (peptide)
peptide: FVSTTSFXAESPCG
modifications: not fully specified; N-terminal acetyl (Ac*) joined by a sulfide bond to the side chain of Cys13 (cyclic); 7: L-(N-Me)Phe; 8: L-Bip; 9: L-(N-Me)Ala; C-terminal amide (NH2)
notes: also called 1-12; Ex. No. 1-12
B4: Ac*-F-V-D-T-T-S-(N-Me)F-B-(N-Me)A-N-S-P-C*-G-NH2 (peptide)
peptide: {CH2CO}-FVDTTS[NMeF][Bip][NMeA]NSPCG-NH2
modifications: thioether N-13
SMILES: CC(C)[C@@H]1NC(=O)[C@H](Cc2ccccc2)NC(=O)CSC[C@@H](C(=O)NCC(N)=O)NC(=O)[C@@H]2CCCN2C(=O)[C@H](CO)NC(=O)[C@H](CC(N)=O)NC(=O)[C@H](C)N(C)C(=O)[C@H](Cc2ccc(-c3ccccc3)cc2)NC(=O)[C@H](Cc2ccccc2)N(C)C(=O)[C@H](CO)NC(=O)[C@H]([C@@H](C)O)NC(=O)[C@H]([C@@H](C)O)NC(=O)[C@H](CC(=O)O)NC1=O
notes: also called 1-3; Ex. No. 1-3
B5: Ac*-F-V-D-T-T-S-(N-Me)F-B-(N-Me)E-N-S-P-C*-G-NH2 (peptide)
peptide: {CH2CO}-FVDTTS[NMeF][Bip][NMeE]NSPCG-NH2
modifications: thioether N-13
SMILES: CC(C)[C@@H]1NC(=O)[C@H](Cc2ccccc2)NC(=O)CSC[C@@H](C(=O)NCC(N)=O)NC(=O)[C@@H]2CCCN2C(=O)[C@H](CO)NC(=O)[C@H](CC(N)=O)NC(=O)[C@H](CCC(=O)O)N(C)C(=O)[C@H](Cc2ccc(-c3ccccc3)cc2)NC(=O)[C@H](Cc2ccccc2)N(C)C(=O)[C@H](CO)NC(=O)[C@H]([C@@H](C)O)NC(=O)[C@H]([C@@H](C)O)NC(=O)[C@H](CC(=O)O)NC1=O
notes: also called 1-1; Ex. No. 1-1
B6: Ac*-F-V-D-S-T-Y-(N-Me)A-B-(N-Me)A-N-H-P-C*-G-NH2 (peptide)
peptide: {CH2CO}-FVDSTY[NMeA][Bip][NMeA]NHPCG-NH2
modifications: thioether N-13
SMILES: CC(C)[C@@H]1NC(=O)[C@H](Cc2ccccc2)NC(=O)CSC[C@@H](C(=O)NCC(N)=O)NC(=O)[C@@H]2CCCN2C(=O)[C@H](Cc2c[nH]cn2)NC(=O)[C@H](CC(N)=O)NC(=O)[C@H](C)N(C)C(=O)[C@H](Cc2ccc(-c3ccccc3)cc2)NC(=O)[C@H](C)N(C)C(=O)[C@H](Cc2ccc(O)cc2)NC(=O)[C@H]([C@@H](C)O)NC(=O)[C@H](CO)NC(=O)[C@H](CC(=O)O)NC1=O
notes: also called 1-4; Ex. No. 1-4
B7: Ac*-F-V-S-T-T-B-(N-Me)A-B-(N-Me)A-D-S-P-C*-G-NH2 (peptide)
peptide: FVSTTXAXADSPCG
modifications: not fully specified; N-terminal acetyl (Ac*) joined by a sulfide bond to the side chain of Cys13 (cyclic); 6: L-Bip; 7: L-(N-Me)Ala; 8: L-Bip; 9: L-(N-Me)Ala; C-terminal amide (NH2)
notes: also called 1-8; Ex. No. 1-8
B8: Ac*-F-V-S-T-T-B-(N-Me)A-B-(N-Me)A-E-S-P-C*-G-NH2 (peptide)
peptide: FVSTTXAXAESPCG
modifications: not fully specified; N-terminal acetyl (Ac*) joined by a sulfide bond to the side chain of Cys13 (cyclic); 6: L-Bip; 7: L-(N-Me)Ala; 8: L-Bip; 9: L-(N-Me)Ala; C-terminal amide (NH2)
notes: also called 1-25; Ex. No. 1-25
B9: Ac*-F-V-D-T-T-B-(N-Me)A-B-(N-Me)A-E-S-P-C*-G-NH2 (peptide)
peptide: {CH2CO}-FVDTT[Bip][NMeA][Bip][NMeA]ESPCG-NH2
modifications: thioether N-13
SMILES: CC(C)[C@@H]1NC(=O)[C@H](Cc2ccccc2)NC(=O)CSC[C@@H](C(=O)NCC(N)=O)NC(=O)[C@@H]2CCCN2C(=O)[C@H](CO)NC(=O)[C@H](CCC(=O)O)NC(=O)[C@H](C)N(C)C(=O)[C@H](Cc2ccc(-c3ccccc3)cc2)NC(=O)[C@H](C)N(C)C(=O)[C@H](Cc2ccc(-c3ccccc3)cc2)NC(=O)[C@H]([C@@H](C)O)NC(=O)[C@H]([C@@H](C)O)NC(=O)[C@H](CC(=O)O)NC1=O
notes: also called 1-10; Ex. No. 1-10
B10: Ac*-F-V-P-T-T-B-(N-Me)A-B-(N-Me)A-D-R-P-C*-G-NH2 (peptide)
peptide: {CH2CO}-FVPTT[Bip][NMeA][Bip][NMeA]DRPCG-NH2
modifications: thioether N-13
SMILES: CC(C)[C@@H]1NC(=O)[C@H](Cc2ccccc2)NC(=O)CSC[C@@H](C(=O)NCC(N)=O)NC(=O)[C@@H]2CCCN2C(=O)[C@H](CCCNC(=N)N)NC(=O)[C@H](CC(=O)O)NC(=O)[C@H](C)N(C)C(=O)[C@H](Cc2ccc(-c3ccccc3)cc2)NC(=O)[C@H](C)N(C)C(=O)[C@H](Cc2ccc(-c3ccccc3)cc2)NC(=O)[C@H]([C@@H](C)O)NC(=O)[C@H]([C@@H](C)O)NC(=O)[C@@H]2CCCN2C1=O
notes: also called 1-19; Ex. No. 1-19
B11: Ac*-F-V-S-T-T-B-(N-Me)A-(3-F)F-(N-Me)A-D-R-P-C*-G-NH2 (peptide)
peptide: {CH2CO}-FVSTT[Bip][NMeA][Phe(3-F)][NMeA]DRPCG-NH2
modifications: thioether N-13
SMILES: CC(C)[C@@H]1NC(=O)[C@H](Cc2ccccc2)NC(=O)CSC[C@@H](C(=O)NCC(N)=O)NC(=O)[C@@H]2CCCN2C(=O)[C@H](CCCNC(=N)N)NC(=O)[C@H](CC(=O)O)NC(=O)[C@H](C)N(C)C(=O)[C@H](Cc2cccc(F)c2)NC(=O)[C@H](C)N(C)C(=O)[C@H](Cc2ccc(-c3ccccc3)cc2)NC(=O)[C@H]([C@@H](C)O)NC(=O)[C@H]([C@@H](C)O)NC(=O)[C@H](CO)NC1=O
notes: also called 1-15; Ex. No. 1-15
B12: Ac*-F-V-S-T-T-B-(N-Me)A-B-(N-Me)A-D-R-P-C*-G-NH2 (peptide)
peptide: {CH2CO}-FVSTT[Bip][NMeA][Bip][NMeA]DRPCG-NH2
modifications: thioether N-13
notes: also called 1-2; Ex. No. 1-2
B13: Ac*-F-V-S-T-T-B-(N-Me)A-B-(N-Me)A-P-S-P-C*-G-NH2 (peptide)
peptide: FVSTTXAXAPSPCG
modifications: not fully specified; N-terminal acetyl (Ac*) joined by a sulfide bond to the side chain of Cys13 (cyclic); 6: L-Bip; 7: L-(N-Me)Ala; 8: L-Bip; 9: L-(N-Me)Ala; C-terminal amide (NH2)
notes: also called 1-20; Ex. No. 1-20
B14: Ac*-F-V-D-T-T-B-(N-Me)A-(3,4-diCl)F-(N-Me)A-E-S-P-C*-G-NH2 (peptide)
peptide: {CH2CO}-FVDTT[Bip][NMeA][Phe(3,4-Cl2)][NMeA]ESPCG-NH2
modifications: thioether N-13
SMILES: CC(C)[C@@H]1NC(=O)[C@H](Cc2ccccc2)NC(=O)CSC[C@@H](C(=O)NCC(N)=O)NC(=O)[C@@H]2CCCN2C(=O)[C@H](CO)NC(=O)[C@H](CCC(=O)O)NC(=O)[C@H](C)N(C)C(=O)[C@H](Cc2ccc(Cl)c(Cl)c2)NC(=O)[C@H](C)N(C)C(=O)[C@H](Cc2ccc(-c3ccccc3)cc2)NC(=O)[C@H]([C@@H](C)O)NC(=O)[C@H]([C@@H](C)O)NC(=O)[C@H](CC(=O)O)NC1=O
notes: also called 1-26; Ex. No. 1-26
B15: Ac*-F-V-S-T-T-(p-CF3)F-(N-Me)A-(p-CF3)F-(N-Me)A-E-R-P-C*-G-NH2 (peptide)
peptide: {CH2CO}-FVSTT[Phe(4-CF3)][NMeA][Phe(4-CF3)][NMeA]ERPCG-NH2
modifications: thioether N-13
SMILES: CC(C)[C@@H]1NC(=O)[C@H](Cc2ccccc2)NC(=O)CSC[C@@H](C(=O)NCC(N)=O)NC(=O)[C@@H]2CCCN2C(=O)[C@H](CCCNC(=N)N)NC(=O)[C@H](CCC(=O)O)NC(=O)[C@H](C)N(C)C(=O)[C@H](Cc2ccc(C(F)(F)F)cc2)NC(=O)[C@H](C)N(C)C(=O)[C@H](Cc2ccc(C(F)(F)F)cc2)NC(=O)[C@H]([C@@H](C)O)NC(=O)[C@H]([C@@H](C)O)NC(=O)[C@H](CO)NC1=O
notes: also called 1-11; Ex. No. 1-11
B16: Ac*-F-V-S-T-T-B-(N-Me)A-(3,4-diCl)F-(N-Me)A-D-R-P-C*-G-NH2 (peptide)
peptide: {CH2CO}-FVSTT[Bip][NMeA][Phe(3,4-Cl2)][NMeA]DRPCG-NH2
modifications: thioether N-13
SMILES: CC(C)[C@@H]1NC(=O)[C@H](Cc2ccccc2)NC(=O)CSC[C@@H](C(=O)NCC(N)=O)NC(=O)[C@@H]2CCCN2C(=O)[C@H](CCCNC(=N)N)NC(=O)[C@H](CC(=O)O)NC(=O)[C@H](C)N(C)C(=O)[C@H](Cc2ccc(Cl)c(Cl)c2)NC(=O)[C@H](C)N(C)C(=O)[C@H](Cc2ccc(-c3ccccc3)cc2)NC(=O)[C@H]([C@@H](C)O)NC(=O)[C@H]([C@@H](C)O)NC(=O)[C@H](CO)NC1=O
notes: also called 1-14; Ex. No. 1-14
B17: Ac*-F-V-S-T-T-B-(N-Me)F-B-(N-Me)A-E-S-P-C*-G-NH2 (peptide)
peptide: FVSTTXFXAESPCG
modifications: not fully specified; N-terminal acetyl (Ac*) joined by a sulfide bond to the side chain of Cys13 (cyclic); 6: L-Bip; 7: L-(N-Me)Phe; 8: L-Bip; 9: L-(N-Me)Ala; C-terminal amide (NH2)
notes: also called 1-13; Ex. No. 1-13
B18: Ac*-F-V-S-T-T-S-(N-Me)F-B-(N-Me)A-D-R-P-C*-G-NH2 (peptide)
peptide: FVSTTSFXADRPCG
modifications: not fully specified; N-terminal acetyl (Ac*) joined by a sulfide bond to the side chain of Cys13 (cyclic); 7: L-(N-Me)Phe; 8: L-Bip; 9: L-(N-Me)Ala; C-terminal amide (NH2)
notes: also called 1-9; Ex. No. 1-9
B19: Ac*-F-V-D-T-T-S-(N-Me)F-(p-CF3)F-(N-Me)A-E-S-P-C*-G-NH2 (peptide)
peptide: {CH2CO}-FVDTTS[NMeF][Phe(4-CF3)][NMeA]ESPCG-NH2
modifications: thioether N-13
SMILES: CC(C)[C@@H]1NC(=O)[C@H](Cc2ccccc2)NC(=O)CSC[C@@H](C(=O)NCC(N)=O)NC(=O)[C@@H]2CCCN2C(=O)[C@H](CO)NC(=O)[C@H](CCC(=O)O)NC(=O)[C@H](C)N(C)C(=O)[C@H](Cc2ccc(C(F)(F)F)cc2)NC(=O)[C@H](Cc2ccccc2)N(C)C(=O)[C@H](CO)NC(=O)[C@H]([C@@H](C)O)NC(=O)[C@H]([C@@H](C)O)NC(=O)[C@H](CC(=O)O)NC1=O
notes: also called 1-6; Ex. No. 1-6

These binders were tested against T1, Human PCSK9 Alexa Fluor 647 (human, UniProt Q8NBP7 31-692, limits assumed, Alexa Fluor 647 label (site not stated)) (assay: TR-FRET competition: PCSK9-Alexa Fluor 647 vs LDLR ECD-Eu kryptate).
T1 construct: Labelled tracer of the TR-FRET assay, 16 nM stock; also called proprotein convertase subtilisin/kexin type 9
Method: A Proxi plate-low volume assay plate was used for the assay. […] Following a 30 minute incubation, 5 uL of 4 nM Human LDLR extracellular domain-Europium Kryptate was added and the mixture was incubated for an additional 2 hours.
The TR-FRET signal was measured on an EnVision or PheraStar instrument with a 60 μs delay, 330 nm excitation and 665 nm emission (FRET), and 330 nm excitation and 615 nm (Europium). The FRET ratio (FRET/Europium) was used for calculations.

T1 sequence (Q8NBP7 31-692 limits assumed): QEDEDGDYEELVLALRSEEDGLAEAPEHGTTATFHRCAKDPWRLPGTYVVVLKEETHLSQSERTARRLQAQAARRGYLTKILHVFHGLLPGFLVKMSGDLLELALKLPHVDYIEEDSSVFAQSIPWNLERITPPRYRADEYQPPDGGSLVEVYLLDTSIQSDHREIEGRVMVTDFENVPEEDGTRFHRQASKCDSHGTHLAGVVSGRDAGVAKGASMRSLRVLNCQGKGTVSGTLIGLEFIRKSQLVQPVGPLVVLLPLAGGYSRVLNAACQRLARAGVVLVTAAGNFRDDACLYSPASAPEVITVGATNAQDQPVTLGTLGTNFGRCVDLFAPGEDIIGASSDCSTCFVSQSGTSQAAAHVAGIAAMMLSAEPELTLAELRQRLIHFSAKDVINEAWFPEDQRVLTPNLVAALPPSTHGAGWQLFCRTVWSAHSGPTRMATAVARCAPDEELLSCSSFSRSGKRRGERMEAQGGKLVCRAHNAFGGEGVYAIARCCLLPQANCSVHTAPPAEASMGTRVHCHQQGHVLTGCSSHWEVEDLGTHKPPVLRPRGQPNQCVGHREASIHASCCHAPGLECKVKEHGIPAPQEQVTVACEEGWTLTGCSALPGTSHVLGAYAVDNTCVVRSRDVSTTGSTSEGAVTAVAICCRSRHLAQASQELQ

IC50	Maximum % inhibition	Binder
410 nM	60%	B1
35 nM	95%	B2
14 nM	87%	B3
2.1 nM	55%	B4
2.6 nM	65%	B5
4 nM	60%	B6
2.3 nM	58%	B7
2.5 nM	68%	B8
6 nM	90%	B9
2.7 nM	38%	B10
12 nM	53%	B11
1.3 nM		B12
8.1 nM	35%	B13
2.4 nM	84%	B14
3.6 nM	55%	B15
1.2 nM	49%	B16
7.8 nM	86%	B17
3 nM	35%	B18
12 nM	97%	B19
